Values of other authors as cited in PMC7130864.

Biological target: Kv1.3 (Homo sapiens) (UniProt P22001)
Chain of UniProt P22001 (P22001 whole entry): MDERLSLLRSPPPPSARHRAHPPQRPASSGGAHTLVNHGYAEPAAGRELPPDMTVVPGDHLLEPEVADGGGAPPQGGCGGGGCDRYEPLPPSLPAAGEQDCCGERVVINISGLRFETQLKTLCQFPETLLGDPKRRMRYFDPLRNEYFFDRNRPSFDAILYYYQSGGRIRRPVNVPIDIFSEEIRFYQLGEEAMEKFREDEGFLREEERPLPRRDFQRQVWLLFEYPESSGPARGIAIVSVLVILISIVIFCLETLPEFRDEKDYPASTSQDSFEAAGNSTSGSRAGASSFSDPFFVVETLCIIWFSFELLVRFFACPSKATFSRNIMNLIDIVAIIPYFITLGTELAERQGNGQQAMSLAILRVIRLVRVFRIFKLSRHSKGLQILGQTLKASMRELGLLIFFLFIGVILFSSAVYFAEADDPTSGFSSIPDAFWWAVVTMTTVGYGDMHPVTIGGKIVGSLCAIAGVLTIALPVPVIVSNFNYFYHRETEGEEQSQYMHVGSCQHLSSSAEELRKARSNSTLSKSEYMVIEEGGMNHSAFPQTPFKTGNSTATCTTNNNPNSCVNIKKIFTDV

For BmKTX (from UniProt Q9NII7), the Kd is listed as 0.2 nM.
